From IntAct's records for PubMed 18715118

B1: Metallothionein expression activator (Saccharomyces cerevisiae), P21192 (parent)
chain: MDNVVDPWYINPSGFAKDTQDEEYVQHHDNVNPTIPPPDNYILNNENDDGLDNLLGMDYYNIDDLLTQELRDLDIPLVPSPKTGDGSSDKKNIDRTWNLGDENNKVSHYSKKSMSSHKRGLSGTAIFGFLGHNKTLSISSLQQSILNMSKDPQPMELINELGNHNTVKNNNDDFDHIRENDGENSYLSQVLLKQQEELRIALEKQKEVNEKLEKQLRDNQIQQEKLRKVLEEQEEVAQKLVSGATNSNSKPGSPVILKTPAMQNGRMKDNAIIVTTNSANGGYQFPPPTLISPRMSNTSINGSPSRKYHRQRYPNKSPESNGLNLFSSNSGYLRDSELLSFSPQNYNLNLDGLTYNDHNNTSDKNNNDKKNSTGDNIFRLFEKTSPGGLSISPRINGNSLRSPFLVGTDKSRDDRYAAGTFTPRTQLSPIHKKRESVVSTVSTISQLQDDTEPIHMRNTQNPTLRNANALASSSVLPPIPGSSNNTPIKNSLPQKHVFQHTPVKAPPKNGSNLAPLLNAPDLTDHQLEIKTPIRNNSHCEVESYPQVPPVTHDIHKSPTLHSTSPLPDEIIPRTTPMKITKKPTTLPPGTIDQYVKELPDKLFECLYPNCNKVFKRRYNIRSHIQTHLQDRPYSCDFPGCTKAFVRNHDLIRHKISHNAKKYICPCGKRFNREDALMVHRSRMICTGGKKLEHSINKKLTSPKKSLLDSPHDTSPVKETIARDKDGSVLMKMEEQLRDDMRKHGLLDPPPSTAAHEQNSNRTLSNETDAL

Variants of: B1
Settings: with xpo1_yeast CRM1, P30822

Q: How did the “effect of a mutation on the interaction” value turn out when F127V was run?
A: Its value is “decreasing interaction”.

Variants of: B1
Settings: with xpo1_yeast CRM1, P30822
Remark: another data set of the same source

Q: For F127V, which “effect of a mutation on the interaction” value is on record?
A: Its value is “disrupting interaction”.

Q: How did the “effect of a mutation on the interaction” value turn out when S122D was run?
A: Its value is “decreasing interaction”.

Q: How did the “effect of a mutation on the interaction” value turn out when S122D;S137D was run?
A: Its value is “disrupting interaction”.

Q: S137D was tested. Which “effect of a mutation on the interaction” value did it give?
A: Its value is “decreasing interaction”.

Variants of: B1
Settings: with cbk1_yeast CBK1, P53894
Chain of cbk1_yeast CBK1, P53894 (P53894 whole entry): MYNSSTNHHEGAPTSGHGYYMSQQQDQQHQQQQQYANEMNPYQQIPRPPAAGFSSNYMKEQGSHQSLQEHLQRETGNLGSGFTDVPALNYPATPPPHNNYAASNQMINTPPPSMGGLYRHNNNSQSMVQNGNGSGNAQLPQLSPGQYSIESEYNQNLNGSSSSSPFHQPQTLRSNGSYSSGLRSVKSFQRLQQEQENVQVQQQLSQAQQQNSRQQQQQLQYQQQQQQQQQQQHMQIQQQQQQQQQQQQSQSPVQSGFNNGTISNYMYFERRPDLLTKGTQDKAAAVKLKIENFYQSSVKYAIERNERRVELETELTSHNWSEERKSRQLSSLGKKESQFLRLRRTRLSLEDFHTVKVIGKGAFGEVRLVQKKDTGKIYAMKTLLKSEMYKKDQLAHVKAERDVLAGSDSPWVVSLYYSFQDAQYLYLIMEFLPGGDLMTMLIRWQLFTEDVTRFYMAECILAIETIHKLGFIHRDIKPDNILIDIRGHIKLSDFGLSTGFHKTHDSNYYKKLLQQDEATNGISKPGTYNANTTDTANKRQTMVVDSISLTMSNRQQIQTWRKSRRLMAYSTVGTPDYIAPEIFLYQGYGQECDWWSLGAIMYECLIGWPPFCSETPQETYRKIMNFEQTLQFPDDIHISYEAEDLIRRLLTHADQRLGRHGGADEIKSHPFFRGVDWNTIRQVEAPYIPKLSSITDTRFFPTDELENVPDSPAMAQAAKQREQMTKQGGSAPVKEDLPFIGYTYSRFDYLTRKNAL

Q: How did the “effect of a mutation on the interaction” value turn out when S113A;H117A;S137A was run?
A: The value was “disrupting interaction”.

Q: S113A;S122A;S137A was tested. Which “effect of a mutation on the interaction” value did it give?
A: The value was “disrupting interaction”.
